Assay [1] concerns the target T1, interleukin-23 receptor (IL-23R) (human, UniProt Q5VWK5 24-629).
T1 sequence (looked up): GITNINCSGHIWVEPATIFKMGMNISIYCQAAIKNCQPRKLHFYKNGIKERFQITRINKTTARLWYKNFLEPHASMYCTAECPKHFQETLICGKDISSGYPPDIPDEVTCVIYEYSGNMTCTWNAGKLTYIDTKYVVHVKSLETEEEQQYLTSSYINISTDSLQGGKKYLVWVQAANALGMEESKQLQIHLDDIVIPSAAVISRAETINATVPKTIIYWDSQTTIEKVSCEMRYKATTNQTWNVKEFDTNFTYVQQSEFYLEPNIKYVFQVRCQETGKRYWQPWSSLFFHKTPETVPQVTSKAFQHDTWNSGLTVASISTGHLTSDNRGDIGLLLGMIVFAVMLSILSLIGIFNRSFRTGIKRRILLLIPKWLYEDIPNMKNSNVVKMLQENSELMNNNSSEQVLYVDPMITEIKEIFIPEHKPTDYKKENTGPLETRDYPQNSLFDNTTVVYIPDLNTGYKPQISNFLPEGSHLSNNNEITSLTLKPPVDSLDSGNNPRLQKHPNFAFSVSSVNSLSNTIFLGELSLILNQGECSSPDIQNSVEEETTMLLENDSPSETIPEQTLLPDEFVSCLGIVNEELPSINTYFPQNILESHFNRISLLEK
Description: cell-based or functional assay.

The target in assay [2] is T1, interleukin-23 receptor (IL-23R). The assay is described as follows: cell-based or functional assay. The source holds these as a separate data set.

Positions of bridges follow the written chain, without caps; N, C: chain ends. Non-standard residues stand in square brackets, D forms with d. Trp(7-Me) = Cc1cccc2c(C[C@H](N)C(=O)O)c[nH]c12; 2Nal = N[C@@H](Cc1ccc2ccccc2c1)C(=O)O; AEF = NCCOc1ccc(C[C@H](N)C(=O)O)cc1; Cit = NC(=O)NCCC[C@H](N)C(=O)O; αMeL = CC(C)C[C@](C)(N)C(=O)O; Pen = CC(C)(S)[C@H](N)C(=O)O; αMeK = C[C@](N)(CCCCN)C(=O)O; βAla = NCCC(=O)O Bounds are passed on as bounds.

B1: Peptide of SEQ ID NO: 259 (peptide)
peptide: Ac-[Pen]NT[Trp(7-Me)][Cit][Pen][AEF][2Nal][αMeK]K(Ac)N[dY]-NH2
modifications: disulfide 1-6
SMILES: CC(=O)NCCCC[C@H](NC(=O)[C@](C)(CCCCN)NC(=O)[C@H](Cc1ccc2ccccc2c1)NC(=O)[C@H](Cc1ccc(OCCN)cc1)NC(=O)[C@H]1NC(=O)[C@H](CCCNC(N)=O)NC(=O)[C@H](Cc2c[nH]c3c(C)cccc23)NC(=O)[C@H]([C@@H](C)O)NC(=O)[C@H](CC(N)=O)NC(=O)[C@@H](NC(C)=O)C(C)(C)SSC1(C)C)C(=O)N[C@@H](CC(N)=O)C(=O)N[C@H](Cc1ccc(O)cc1)C(N)=O
Consider B1, for which the “NK Cell Assay IC50” value in assay [1] was 7.6 nM. Moreover, the “pStat3 HTRF IC50” value in assay [2] amounted to 0.607 nM.

B2: Peptide of SEQ ID NO: 205 (peptide)
peptide: XNTXQXXXXKGX
modifications: Ac-[Pen]-NT-[W(7-Me)]-Q-[Pen]-Phe[4-(2-aminoethoxy)]-[2-Nal]-[a-MeLeu]-[Lys(Ac)]-G-[bA]-NH2; Pen-Pen disulfide
For B2, the “NK Cell Assay IC50” value in assay [1] came to 16.6 nM. Moreover, in assay [2], the “pStat3 HTRF IC50” value turned out to be 4.46 nM.

B3: Peptide of SEQ ID NO: 226 (peptide)
peptide: XNTXQXXXXKXX
modifications: Ac-[Pen]-NT-[W(7-Me)]-Q-[Pen]-Phe[4-(2-aminoethoxy)]-[2-Nal]-[a-MeLeu]-[Lys(Ac)]-[bA]-[bA]-NH2; Pen-Pen disulfide
B3: the “NK Cell Assay IC50” value in assay [1] is 9.55 nM. Moreover, the “pStat3 HTRF IC50” value in assay [2] amounted to 25.7 nM.

B4: Peptide of SEQ ID NO: 362 (peptide)
peptide: XNTXKXXXXXNL
modifications: Ac-[Pen]-N-T-[W(7-Me)]-[Lys(Ac)]-[Pen]-Phe[4-(2-aminoethoxy)]-[2-Nal]-[a-MeLys]-[Lys(PEG3-OMe)]-N-[(D)Leu]-NH2; Pen-Pen disulfide
Turning to B4, the “NK Cell Assay IC50” value in assay [1] turned out to be 3.81 nM. Moreover, the “pStat3 HTRF IC50” value in assay [2] was 0.107 nM.

B5: Peptide of SEQ ID NO: 359 (peptide)
peptide: XNTXKXXXXXNL
modifications: not fully specified; Ac-[Pen]-N-T-[W(7-Me)]-[Lys(Ac)]-[Pen]-Phe[4-(2-aminoethoxy)]-[2-Nal]-[a-MeLys]-[Lys(benzyl)]-N-[(D)Leu]-NH2; Pen-Pen disulfide
With B5, in assay [1], the “NK Cell Assay IC50” value was determined as 4.97 nM. In addition, in assay [2], the “pStat3 HTRF IC50” value came out at 0.725 nM.

B6: Peptide of SEQ ID NO: 238 (peptide)
peptide: Ac-[Pen][Cit]T[Trp(7-Me)]Q[Pen][AEF][2Nal][αMeK]K(Ac)N[βAla]-NH2
modifications: disulfide 1-6
SMILES: CC(=O)NCCCC[C@H](NC(=O)[C@](C)(CCCCN)NC(=O)[C@H](Cc1ccc2ccccc2c1)NC(=O)[C@H](Cc1ccc(OCCN)cc1)NC(=O)[C@H]1NC(=O)[C@H](CCC(N)=O)NC(=O)[C@H](Cc2c[nH]c3c(C)cccc23)NC(=O)[C@H]([C@@H](C)O)NC(=O)[C@H](CCCNC(N)=O)NC(=O)[C@@H](NC(C)=O)C(C)(C)SSC1(C)C)C(=O)N[C@@H](CC(N)=O)C(=O)NCCC(N)=O
B6: in assay [1], the “NK Cell Assay IC50” value was 2.99 nM. The “pStat3 HTRF IC50” value in assay [2] came out at 1.06 nM.

B7: Peptide of SEQ ID NO: 234 (peptide)
peptide: XNTXXXXXXKNX
modifications: Ac-[Pen]-NT-[W(7-Me)]-[a-MeLys]-[Pen]-Phe[4-(2-aminoethoxy)]-[2-Nal]-[a-MeLeu]-[Lys(Ac)]-N-[bA]-NH2; Pen-Pen disulfide
B7: in assay [1], the “NK Cell Assay IC50” value is 7.7 nM. In addition, in assay [2], the “pStat3 HTRF IC50” value was determined as 3.48 nM.

B8: Peptide of SEQ ID NO: 258 (peptide)
peptide: XNTXKXXXXKNF
modifications: Ac-[Pen]-NT-[W(7-Me)]-[Lys(Ac)]-[Pen]-Phe[4-(2-aminoethoxy)]-[2-Nal]-[a-MeLys]-[Lys(Ac)]-N-[(D)Phe]-NH2; Pen-Pen disulfide
B8: the “NK Cell Assay IC50” value in assay [1] came to 9.7 nM. Also, in assay [2], the “pStat3 HTRF IC50” value was found to be 0.92 nM.

B9: Peptide of SEQ ID NO: 360 (peptide)
peptide: XNTXKXXXXXNL
modifications: Ac-[Pen]-N-T-[W(7-Me)]-[Lys(Ac)]-[Pen]-Phe[4-(2-aminoethoxy)]-[2-Nal]-[a-MeLys]-[Lys(trifluoropropionic)]-N-[(D)Leu]-NH2; Pen-Pen disulfide
For B9, in assay [1], the “NK Cell Assay IC50” value came out at 1.1 nM. The “pStat3 HTRF IC50” value in assay [2] was found to be 0.568 nM.

B10: Peptide of SEQ ID NO: 232 (peptide)
peptide: XNTXQXXXXKNX
modifications: Ac-[Pen]-NT-[W(1-Me)]-Q-[Pen]-Phe[4-(2-aminoethoxy)]-[2-Nal]-[a-MeLys]-[Lys(Ac)]-N-[bA]-NH2; Pen-Pen disulfide
Regarding B10, the “NK Cell Assay IC50” value in assay [1] turned out to be 9 nM. For the same molecule, in assay [2], the “pStat3 HTRF IC50” value worked out at 4.5 nM.

B11: Peptide of SEQ ID NO: 224 (peptide)
peptide: XNTXQXXXXKXX
modifications: Ac-[Pen]-NT-[W(7-Me)]-Q-[Pen]-Phe[4-(2-aminoethoxy)]-[2-Nal]-[a-MeLeu]-[Lys(Ac)]-[Sarc]-[bA]-NH2; Pen-Pen disulfide
Turning to B11, in assay [1], the “NK Cell Assay IC50” value was more than 500 nM. Also, the “pStat3 HTRF IC50” value in assay [2] worked out at 124 nM.

B12: Peptide of SEQ ID NO: 207 (peptide)
peptide: XNTXQXXXXKAX
modifications: Ac-[Pen]-NT-[W(7-Me)]-Q-[Pen]-Phe[4-(2-aminoethoxy)]-[2-Nal]-[a-MeLeu]-[Lys(Ac)]-A-[bA]-NH2; Pen-Pen disulfide
For B12, in assay [1], the “NK Cell Assay IC50” value stood at 8.4 nM. Also, the “pStat3 HTRF IC50” value in assay [2] was 1.46 nM.

B13: Peptide of SEQ ID NO: 225 (peptide)
peptide: XNTXQXXXXKXX
modifications: Ac-[Pen]-NT-[W(7-Me)]-Q-[Pen]-Phe[4-(2-aminoethoxy)]-[2-Nal]-[a-MeLeu]-[Lys(Ac)]-[a-MeLeu]-[bA]-NH2; Pen-Pen disulfide
In the case of B13, in assay [1], the “NK Cell Assay IC50” value amounted to 114 nM. The “pStat3 HTRF IC50” value in assay [2] came out at 56.7 nM.

B14: Peptide of SEQ ID NO: 261 (peptide)
peptide: Ac-[Pen]NT[Trp(7-Me)][Cit][Pen][AEF][2Nal][αMeK]K(Ac)N[dS]-NH2
modifications: disulfide 1-6
SMILES: CC(=O)NCCCC[C@H](NC(=O)[C@](C)(CCCCN)NC(=O)[C@H](Cc1ccc2ccccc2c1)NC(=O)[C@H](Cc1ccc(OCCN)cc1)NC(=O)[C@H]1NC(=O)[C@H](CCCNC(N)=O)NC(=O)[C@H](Cc2c[nH]c3c(C)cccc23)NC(=O)[C@H]([C@@H](C)O)NC(=O)[C@H](CC(N)=O)NC(=O)[C@@H](NC(C)=O)C(C)(C)SSC1(C)C)C(=O)N[C@@H](CC(N)=O)C(=O)N[C@H](CO)C(N)=O
As for B14, the “NK Cell Assay IC50” value in assay [1] turned out to be 4.87 nM. The “pStat3 HTRF IC50” value in assay [2] was 0.522 nM.

B15: Peptide of SEQ ID NO: 206 (peptide)
peptide: XNTXQXXXXKXX
modifications: Ac-[Pen]-NT-[W(7-Me)]-Q-[Pen]-Phe[4-(2-aminoethoxy)]-[2-Nal]-[a-MeLeu]-[Lys(Ac)]-[Cit]-[bA]-NH2; Pen-Pen disulfide
As to B15, in assay [1], the “NK Cell Assay IC50” value was 21.4 nM. Also, the “pStat3 HTRF IC50” value in assay [2] was 12 nM.

B16: Peptide of SEQ ID NO: 242 (peptide)
peptide: XNTXKXXXXKNX
modifications: Ac-[Pen]-NT-[W(7-Me)]-[Lys(Ac)]-[Pen]-Phe[4-(2-aminoethoxy)]-[2-Nal]-[a-MeLys]-[Lys(Ac)]-N-[bA]-NH2; Pen-Pen disulfide
Take B16: the “NK Cell Assay IC50” value in assay [1] was determined as 2.37 nM. Besides, the “pStat3 HTRF IC50” value in assay [2] is 0.641 nM.
For Ac-[Pen]NT[Trp(7-Me)][Cit][Pen][AEF][2Nal][αMeL]K(Ac)N[βAla]-NH2 (disulfide 1-6) [Peptide of SEQ ID NO: 227] the same measures were 2.95 nM and 0.702 nM.
